Measured values taken from patent US20130224246A1 (MACFARLANE BURNET INSTITUTE FOR MEDICAL RESEARCH AND PUBLIC …, published 2013).

Assays:
[1] = molecular target: WT E2661 M + C597A (C452A, C486A, C569A, C581A, C585A, C597A and C652A) (HCV genotype 1a H77c, UniProt P27958 384-661); assay: EIA: E2 titrated on coated MBP-LEL113-201 (5 ug/ml), detected with anti-His
Δ123 E2661 M + C597A = Δ123 E2661 M + C597A (HCV genotype 1a H77c, UniProt P27958 409-661); assay: as above

B1: MBP-LEL113-201, maltose-binding protein linked to the CD81 large extracellular loop between residues 113 to 201 (receptor)
chain: FVNKDQIAKDVKQFYDQALQQAVVDDDANNAKAVVKTFHETLDCCGSSTLTALTTSVLKNNLCPSGSNIISNLFKEDCHQKIDDLFSGK
notes: range 113-201; also called CD81-LEL; CD81 LEL
**Q.** Does B1 bind [1]?
**A.** Result: binds

**Q.** Does B1 bind (Δ123 E2661 M + C597A)?
**A.** Result: binds
